Measurements: patent US20240392036A1 (UNIVERSITEIT GENT, published 2024)

B1: α-APN-mIgG1 (clone IMM013), APN-specific mouse IgG1 monoclonal antibody (antibody)
heavy: QAYLQQSGAELVRSGASVKMSCKASGYTFTSYNMHWVKQTPGQGLEWIGYIYPGNGDINYNQKFKGKATLTADTSSNTAYMQISSLTSEDSAVYFCARGGVFDYWGQGTTLIVSSAKTTPPSVYPLAPGSAAQTNSMVTLGCLVKGYFPEPVTVTWNSGSLSSGVHTFPAVLQSDLYTLSSSVTVPSSTWPSETVTCNVAHPASSTKVDKKIVPRDCGCKPCICTVPEVSSVFIFPPKPKDVLTITLTPKVTCVVVDISKDDPEVQFSWFVDDVEVHTAQTQPREEQFNSTFRSVSELPIMHQDWLNGKEFKCRVNSAAFPAPIEKTISKTKGRPKAPQVYTIPPPKEQMAKDKVSLTCMITDFFPEDITVEWQWNGQPAENYKNTQPIMDTDGSYFVYSKLNVQKSNWEAGNTFTCSVLHEGLHNHHTEKSLSHSPGK
light: QIVLTQSPAIVSASPGEKVTITCSGSSSVNYMHWFQQKPGTSPKLWIYSTSNLASGVPGRFSGSGSGTSYSLTISRMEAEDAATYYCQQRTSYPYTFGGGTKLEIKRADAAPTVSIFPPSSEQLTSGGASVVCFLNNFYPKDINVKWKIDGSERQNGVLNSWTDQDSKDSTYSMSSTLTLTKDEYERHNSYTCEATHKTSTSPIVKSFNRNEC
notes: Purified from hybridoma supernatant by protein G; also called IMMO13; α-APN mAb (clone IMM013)
B2: α-APN-mIgG1-FedF fusion construct (clone IMM013 mouse IgG1 with FedF15-165 fused to the heavy chain) (other)
heavy: QAYLQQSGAELVRSGASVKMSCKASGYTFTSYNMHWVKQTPGQGLEWIGYIYPGNGDINYNQKFKGKATLTADTSSNTAYMQISSLTSEDSAVYFCARGGVFDYWGQGTTLIVSSAKTTPPSVYPLAPGSAAQTNSMVTLGCLVKGYFPEPVTVTWNSGSLSSGVHTFPAVLQSDLYTLSSSVTVPSSTWPSETVTCNVAHPASSTKVDKKIVPRDCGCKPCICTVPEVSSVFIFPPKPKDVLTITLTPKVTCVVVDISKDDPEVQFSWFVDDVEVHTAQTQPREEQFNSTFRSVSELPIMHQDWLNGKEFKCRVNSAAFPAPIEKTISKTKGRPKAPQVYTIPPPKEQMAKDKVSLTCMITDFFPEDITVEWQWNGQPAENYKNTQPIMDTDGSYFVYSKLNVQKSNWEAGNTFTCSVLHEGLHNHHTEKSLSHSPGKGGGGSGGGGSGGGGSNSSASSAQVTGTLLGTGKTNTTQMPALYTWQHQIYNVNFIPSSSGTLTCQAGTILVWKNGRETQYALECRVSIHHSSGSINESQWGQQSQVGFGTACGNKKCRFTGFEISLRIPPNAQTYPLSSGDLKGSFSLTNKEVNWSASIYVPAIAK
light: B1 light
notes: also called FedF-linked α-APN-mIgG1; aAPN-mIgG1-FedF

Key:
[1] = biological target: T1, porcine kidney aminopeptidase N (APN), purified (Sigma) (porcine (Sus scrofa), UniProt P15145 33-963, biotinylated (1:3 ratio) when used as ligand in BLI); assay: BLI (Octet RED96), biotinylated porcine APN on SAX biosensor, mAb at 100 nM, 1:1 local full fit
T1 construct: Used coated in ELISA and biotinylated on SAX biosensors in BLI; also called purified kidney APN; porcine APN
T1 sequence: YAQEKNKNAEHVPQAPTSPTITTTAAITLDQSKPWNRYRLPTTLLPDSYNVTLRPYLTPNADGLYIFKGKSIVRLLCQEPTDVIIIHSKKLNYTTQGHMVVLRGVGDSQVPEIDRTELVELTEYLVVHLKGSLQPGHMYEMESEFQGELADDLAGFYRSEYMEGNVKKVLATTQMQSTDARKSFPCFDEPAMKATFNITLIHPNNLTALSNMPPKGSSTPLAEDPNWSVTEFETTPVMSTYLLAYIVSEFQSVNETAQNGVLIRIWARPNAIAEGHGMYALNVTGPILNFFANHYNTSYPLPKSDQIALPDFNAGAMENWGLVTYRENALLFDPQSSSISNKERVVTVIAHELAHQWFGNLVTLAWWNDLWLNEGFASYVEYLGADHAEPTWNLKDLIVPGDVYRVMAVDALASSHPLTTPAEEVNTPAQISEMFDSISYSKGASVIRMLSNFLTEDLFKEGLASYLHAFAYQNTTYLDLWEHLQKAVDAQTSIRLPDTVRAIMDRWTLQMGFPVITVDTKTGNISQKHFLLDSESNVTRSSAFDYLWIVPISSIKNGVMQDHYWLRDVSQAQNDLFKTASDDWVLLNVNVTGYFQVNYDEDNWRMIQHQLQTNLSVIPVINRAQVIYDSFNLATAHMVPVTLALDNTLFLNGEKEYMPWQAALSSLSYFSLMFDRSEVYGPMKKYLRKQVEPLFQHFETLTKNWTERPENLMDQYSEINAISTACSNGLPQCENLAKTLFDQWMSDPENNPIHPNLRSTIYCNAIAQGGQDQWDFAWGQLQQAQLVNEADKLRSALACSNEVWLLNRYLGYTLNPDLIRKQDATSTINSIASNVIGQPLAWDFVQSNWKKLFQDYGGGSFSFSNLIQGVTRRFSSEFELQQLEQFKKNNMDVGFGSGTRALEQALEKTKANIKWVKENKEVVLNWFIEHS

[2] = biological target: T1, porcine kidney aminopeptidase N (APN), …; assay: bio-layer interferometry, biotinylated porcine APN on SAX biosensor, series of analyte concentrations (not labelled on the sheet)

Row | Binder | Kd [1] [nM] | Kd [2] [nM]
1 | B1 | 1.6 | 1.4
2 | B2 |  | 5.1
